Kd data for 20 molecules are collected here from patent US20200199241A1 (Chugai, published 2020).

Changes are numbered by the printed parent chain.

To fix the notation:
B1: IgG1-F1289 (antibody)
heavy: QVQLQESGPGLVKPSETLSLTCAVSGHSISHDHAWSWVRQPPGEGLEWIGFISYSGITNYNPSLQGRVTISRDNSKNTLYLQMNSLRAEDTAVYYCARSLARTTAMDYWGEGTLVTVSSASTKGPSVFPLAPSSKSTSGGTAALGCLVKDYFPEPVTVSWNSGALTSGVHTFPAVLQSSGLYSLSSVVTVPSSSLGTQTYICNVNHKPSNTKVDKKVEPKSCDKTHTCPPCPAPELRGGPKVFLFPPKPKDTLYISREPEVTCVVVDVSHEDPEVKFNWYVDGVEVHNAKTKPREEQYNSTYRVVSVLTVLHQDWLNGKEYKCKVSNKALPAPIEKTISKAKGQPREPQVYTLPPSRDELTKNQVSLTCLVKGFYPSDIAVEWESNGQPENNYKTTPPVLDSDGSFFLYSKLTVDKSRWQQGNVFSCSVMHEALDYHVTRKELSLSP
light: not shown
notes: EU numbering; copies: 2 + 2
B2: IgG1-F1299 (antibody)
heavy: B1 heavy with D435H, V438Y, R440K, E442D
light: not shown
notes: EU numbering; copies: 2 + 2
B3: IgG1-F1304 (antibody)
heavy: B1 heavy with V438F, R440K, E442D
light: not shown
notes: EU numbering; copies: 2 + 2
B4: IgG1-F1308 (antibody)
heavy: B1 heavy with E258T, V424L, S426L, D435H, R440Q, E442S
light: not shown
notes: EU numbering; copies: 2 + 2
B5: IgG1-F1292 (antibody)
heavy: B1 heavy with Y254M, E258T, Y436W
light: not shown
notes: EU numbering; copies: 2 + 2
B6: IgG1-F1301 (antibody)
heavy: B1 heavy with D435H, V438F, R440K, E442D
light: not shown
notes: EU numbering; copies: 2 + 2
B7: IgG1-F1307 (antibody)
heavy: B1 heavy with E258T, V424A, S426A, D435H, R440Q, E442S
light: not shown
notes: EU numbering; copies: 2 + 2
B8: IgG1-F1298 (antibody)
heavy: B1 heavy with V438F
light: not shown
notes: EU numbering; copies: 2 + 2
B9: IgG1-F1300 (antibody)
heavy: B1 heavy with D435H, V438T, R440K, E442D
light: not shown
notes: EU numbering; copies: 2 + 2
B10: IgG1-F1306 (antibody)
heavy: B1 heavy with E258T, R440K
light: not shown
notes: EU numbering; copies: 2 + 2
B11: IgG1-F1291 (antibody)
heavy: B1 heavy with E258T, R440Q, E442S
light: not shown
notes: EU numbering; copies: 2 + 2
B12: IgG1-F1305 (antibody)
heavy: B1 heavy with E258T, E442D
light: not shown
notes: EU numbering; copies: 2 + 2
B13: IgG1-F1297 (antibody)
heavy: B1 heavy with V438T
light: not shown
notes: EU numbering; copies: 2 + 2
B14: IgG1-F1290 (antibody)
heavy: B1 heavy with R440K, E442D
light: not shown
notes: EU numbering; copies: 2 + 2
B15: IgG1-F1302 (antibody)
heavy: B1 heavy with V438Y, R440K, E442D
light: not shown
notes: EU numbering; copies: 2 + 2
B16: IgG1-F1303 (antibody)
heavy: B1 heavy with V438T, R440K, E442D
light: not shown
notes: EU numbering; copies: 2 + 2
B17: IgG1-F1293 (antibody)
heavy: B1 heavy with D435H, V438Y
light: not shown
notes: EU numbering; copies: 2 + 2
B18: IgG1-F1294 (antibody)
heavy: B1 heavy with D435H, V438T
light: not shown
notes: EU numbering; copies: 2 + 2
B19: IgG1-F1296 (antibody)
heavy: B1 heavy with V438Y
light: not shown
notes: EU numbering; copies: 2 + 2
B20: IgG1-F1295 (antibody)
heavy: B1 heavy with D435H, V438F
light: not shown
notes: EU numbering; copies: 2 + 2

T1 sequence (chain, as listed by the source limits assumed, chain 1 of 2): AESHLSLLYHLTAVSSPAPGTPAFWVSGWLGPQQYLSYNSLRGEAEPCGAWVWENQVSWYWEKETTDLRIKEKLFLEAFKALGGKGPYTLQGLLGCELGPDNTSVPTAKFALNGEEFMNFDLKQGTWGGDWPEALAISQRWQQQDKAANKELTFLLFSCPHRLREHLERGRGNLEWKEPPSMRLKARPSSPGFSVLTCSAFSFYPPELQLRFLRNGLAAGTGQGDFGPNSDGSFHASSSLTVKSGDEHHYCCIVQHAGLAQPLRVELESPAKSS
T1 sequence (P61769 21-119 limits assumed, chain 2 of 2): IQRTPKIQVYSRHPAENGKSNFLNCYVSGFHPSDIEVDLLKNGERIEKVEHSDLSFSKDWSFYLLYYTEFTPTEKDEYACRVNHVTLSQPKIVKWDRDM

This experiment addresses T1, soluble human FcRn complexed with β2-microglobulin (human, UniProt P61769 21-119, limits assumed).
T1 construct: also called hFcRn
As to the kind of experiment: Biacore SPR, pH 7.0.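 Note: test antibodies captured on a Protein L chip with human FcRn flowed over as analyte, KD obtained as the ratio of dissociation to association rate constants.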
Turning to B1, the equilibrium dissociation constant (Kd) came out at 333 nM.

In turn, B2 registered a Kd of 150 nM.

In the case of B3, the Kd worked out at 124 nM.

B4 registered a Kd of 206 nM.

B5: the affinity, expressed as Kd, was 424 nM.

B6 returned a Kd of 83 nM.

In the case of B7, the Kd stood at 144 nM.

B8 gave a Kd of 147 nM.

With B9, binding was characterised by a dissociation constant (Kd) of 163 nM.

In the case of B10, binding was characterised by a dissociation constant (Kd) of 192 nM.

For the molecule B11, the affinity, expressed as Kd, was 151 nM.

In the case of B12, the affinity, expressed as Kd, was 205 nM.

The molecule B13 came in with a Kd of 250 nM.

B14: the Kd amounted to 111 nM.

For the molecule B15, the Kd worked out at 215 nM.

Take B16: binding was characterised by a dissociation constant (Kd) of 210 nM.

In turn, B17 had a Kd of 161 nM.

B18: the affinity, expressed as Kd, was 200 nM.

In the case of B19, the Kd was determined as 227 nM.

For B20, the Kd was 98.4 nM.
